Assay results taken from patent US20040005659.

Target: T1, β-casein (Sigma, St Louis, Mo.), P02666
T1 chain: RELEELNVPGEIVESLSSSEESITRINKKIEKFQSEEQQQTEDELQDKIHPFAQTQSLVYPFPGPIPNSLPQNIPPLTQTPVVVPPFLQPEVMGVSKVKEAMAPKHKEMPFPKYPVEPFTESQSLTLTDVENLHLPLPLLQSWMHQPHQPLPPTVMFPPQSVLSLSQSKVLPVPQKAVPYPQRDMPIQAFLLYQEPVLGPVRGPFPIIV

B1: PRSS11-L CDS-HAHIS (recombinant human PRSS11-L protease with a C-terminal HA6HIS epitope/affinity tag, expressed in baculovirus-infected Sf9 cells) (protein)
chain: MHLALPASAGLHQLSSPRYKFNFIADVVEKIAPAVVHIELFLRHPLFGRNVPLSSGSGFIMSEAGLIITNAHVVSSNSAAPGRQQLKVQLQNGDSYEATIKDIDKKSDIATIKIHPKKKLPVLLLGHSADLRPGEFVVAIGSPFALQNTVTTGIVSTAQREGRELGLRDSDMDYIQTDAIINYGNSGGPLVNLDGEVIGINTLKVTAGISFAIPSDRITRFLTEFQDKQIKDWKKRFIGIRMRTITPSLVDELKASNPDFPEVSSGIYVQEVAPNSPSQRGGIQDGDIIVKVNGRPLVDSSELQEAVLTESPLLLEVRRGNDDLLFSIAPEVVM
  cleavage of β-casein, SDS-PAGE with Coomassie Brilliant Blue staining: The proteolytic activity of PRSS11-L was further confirmed by its cleavage of casein.
